Data set [1] in a line: folding stability dG unfold from trypsin proteolysis; higher = more stable. Put shortly:
(§1)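 Sequencing followed digestion of designed mini-proteins with trypsin and chymotrypsin, each at 11 concentrations in threefold dilutions together with a no-protease condition. The mini-proteins were under 80 residues, had no cysteine, sat in a PA-tagged cDNA display construct, and were kept only if AlphaFold2 dimer inter-PAE was above 15. From the counts, Bayesian fitting gave K50, and unfolding free energy was derived against a sequence-predicted unfolded-state K50 and a shared folded-state K50, per protease or combined.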

The nature of data set [2]: folding stability dG unfold from chymotrypsin proteolysis; higher = more stable. An outline of the steps: as §1
A short description of data set [3]: folding stability dG unfold (combined trypsin and chymotrypsin); higher = more stable. An outline of the steps: as §1

± gives the half width of the 95% confidence interval.

Consider “SAKIVIIPLGDKAIIIITDENGKTKTIELPGISKIEIKGDHLKIYDPKTGKLIIPPNWKGKDIIIIPGKSAG [r14_83_TrMRF]”, for which the “folding stability dG unfold” value was found to be 2.25 ± 0.22 kcal/mol in data set [1], 3.32 ± 0.59 kcal/mol in data set [2] and 2.9 ± 0.34 kcal/mol in data set [3].

Consider “SAKKENSVPVTIEIELEFDSIEKAKKAIEKLAAEIEKETGAKIEIKVEIEEKENNYIVKVELTIYLPKESAG [r14_626_TrMRF]”, for which the “folding stability dG unfold” value in data set [1] is 1.6 ± 0.06 kcal/mol; in data set [2], 1.55 ± 0.051 kcal/mol; in data set [3], 1.64 ± 0.077 kcal/mol.

In the case of “SAKKIKIKEITITVEKNKDGSYTITITVDGKKIAELTFKTPEEAEKAAEELAKELAKKLNVDKIEIKPTSAG [r14_791_TrROS_Hall]”, the results for the “folding stability dG unfold” value in data set [1], in data set [2] and in data set [3] were 1.5 ± 0.18 kcal/mol, 2.69 ± 0.25 kcal/mol and 2.09 ± 0.22 kcal/mol, respectively.

On to “SAKKKKVKKKEIKVTLKLKLPGAKIKSVKVEKKGDKLVITVEIELENGEKLKLTAVFDKDGKIVKIELESAG [r14_719_TrROS_Hall]”, for which the “folding stability dG unfold” value in data set [1] worked out at 1.11 ± 0.11 kcal/mol; in data set [2] it was 1.96 ± 0.061 kcal/mol; in data set [3], 1.74 ± 0.38 kcal/mol.

With “SAKKPKKVIEVTIVLPLEELKNMSLEELLKKILEELGIKEGEKVKIEVKLEEVEIDGKKYLVITVRIELSAG [r14_334_TrROS_Hall]”, the “folding stability dG unfold” value in data set [1] came out at 2.87 ± 0.13 kcal/mol; in data set [2], 2.69 ± 0.11 kcal/mol; in data set [3] it was 2.69 ± 0.15 kcal/mol.

As for “SAKKTVKLKIEIYKVKVEKLKDGKEKITEVEKIAELEIEAEVDEDGKVTIRIDGKEIEVPAGTSLEELLSAG [r14_909_TrROS_Hall]”, the figures for the “folding stability dG unfold” value in data set [1], in data set [2] and in data set [3] were 2.22 ± 0.17 kcal/mol, 3.06 ± 0.12 kcal/mol and 2.76 ± 0.18 kcal/mol, respectively.

On to “SAKKVKIEIKNKETNKIYTIEIKEDGKVTIKNKETGEEIEVEINGKKITFPPGASIDEIIKKLEEALKKSAG [r14_561_TrROS_Hall]”, for which the entries for the “folding stability dG unfold” value in data set [1], in data set [2] and in data set [3] were 1.72 ± 0.16 kcal/mol, 2.77 ± 0.12 kcal/mol and 2.56 ± 0.31 kcal/mol, respectively.

For the sequence “SAKKYIIRVKVKINGKEYEIEIEADSLEEALAKLKEELKKLFPGEKIEEVKIEVYDAKTGEKKEITLKLSAG [r14_54_TrROS_Hall]”, the “folding stability dG unfold” value in data set [1] was 2.76 ± 0.12 kcal/mol; in data set [2] it was 4.2 ± 0.16 kcal/mol; in data set [3] it was 4 ± 0.35 kcal/mol.

As for “SAKPVAEGPIRIPNGFEIEITQIKPDKENGEIVIPIEIEMWRPERDPEDPNQPKWEPQEMNIAFTIPLDSAG [r14_888_TrROS]”, the “folding stability dG unfold” value in data set [1] amounted to 1.3 ± 0.14 kcal/mol; in data set [2], 0.119 ± 0.81 kcal/mol; in data set [3], 0.857 ± 0.22 kcal/mol.

“SAKRVNVEIWIPGDWDEIQEIAEDINFPVEIERNPDKPDMYRITFTFPTPEKAPKILDALNKHGMQIEISAG [r14_745_TrROS]”: the “folding stability dG unfold” value came to 1.33 ± 0.063 kcal/mol in data set [1], 1.89 ± 0.081 kcal/mol in data set [2] and 1.64 ± 0.17 kcal/mol in data set [3].

On to “SAKTKTIEIEVKIKLIEIDPKTGKKTEKEFTAKATITYDEENNVVTIKIEFKDNGKTITITLPPGAKIKSAG [r14_587_TrROS_Hall]”, for which the “folding stability dG unfold” value in data set [1] is 2.1 ± 0.098 kcal/mol; in data set [2], 2.25 ± 0.14 kcal/mol; in data set [3], 2.26 ± 0.27 kcal/mol.

Take “SAKVVIIKVKSPEELKAAIEELKKKLPEGAVIYIVNEDGSVYKITFDKKTGKVKIEKVKSLEELKKLLKSAG [r14_913_TrROS_Hall]”: the “folding stability dG unfold” value in data set [1] was determined as 2.31 ± 0.054 kcal/mol; in data set [2] it was 3.96 ± 0.086 kcal/mol; in data set [3], 3.47 ± 0.14 kcal/mol.

As for “SALLEPLLLEVYIPATGEVITVPAKSLEEAEAIIAEVRADPTVASVRITLPDGTVVEVSFNVSPAAYLKSAG [r14_747_JUSTAS]”, the “folding stability dG unfold” value in data set [1] amounted to 0.42 ± 0.12 kcal/mol; in data set [2], 0.13 ± 0.16 kcal/mol; in data set [3], 0.304 ± 0.2 kcal/mol.

Take “SALSASELAKRVRDRIKELSNEEGYNVDIKVDVQPNEDGSVTVHIQFDSPWMIKRIKEKLPPGVNVEIMSAG [r14_491_TrROS]”: the figures for the “folding stability dG unfold” value in data set [1], in data set [2] and in data set [3] were 3.15 ± 0.073 kcal/mol, 2.421 ± 0.021 kcal/mol and 2.75 ± 0.05 kcal/mol, respectively.

Turning to “SAMDIGPEERAELLLRTLANIAKEEIEKGDLEKAKIFVINGIAEENPPLAERILKEAKELGLPVIILPESAG [r14_908_TrMRF]”, the results for the “folding stability dG unfold” value in data set [1], in data set [2] and in data set [3] were 0.659 ± 0.1 kcal/mol, 1.13 ± 0.076 kcal/mol and 0.981 ± 0.059 kcal/mol, respectively.

On to “SAMEKGKALKYREVIPLPDGPVELEIIYFPETGEYVAIIRNPSTGEKVEIPFKFDSLEDAVKAAKDFVASAG [r14_65_TrMRF]”, for which the “folding stability dG unfold” value was determined as 2.06 ± 0.11 kcal/mol in data set [1], 3.705 ± 0.029 kcal/mol in data set [2] and 3.29 ± 0.076 kcal/mol in data set [3].

With “SAMEKPLETLEIPIPGLPVTVKITIYPSHIEKAKESGIPEITVEALLTIELPDGSKVEKKIPLTVKIPGSAG [r14_100_JUSTAS]”, the entries for the “folding stability dG unfold” value in data set [1], in data set [2] and in data set [3] were 1.58 ± 0.043 kcal/mol, 1.67 ± 0.042 kcal/mol and 1.61 ± 0.11 kcal/mol, respectively.

Turning to “SAMIEVINATDPVTGKPYTITREGEGITVTDPETGKTYAATKDGDTITLDAGDTPLTLTPVSTVPESLLSAG [r14_208_JUSTAS]”, the “folding stability dG unfold” value amounted to 0.839 ± 0.041 kcal/mol in data set [1], 0.989 ± 0.16 kcal/mol in data set [2] and 1.01 ± 0.1 kcal/mol in data set [3].

For the sequence “SAMIIVAMAPDRMLIIGPDGRVLVVDDPEKAIELIKELFPVPIIVIPVPEDSPVFRELLERLERERTGESAG [r14_235_TrMRF]”, the “folding stability dG unfold” value in data set [1] came to 2.71 ± 0.08 kcal/mol; in data set [2], 3.18 ± 0.11 kcal/mol; in data set [3] it was 2.91 ± 0.14 kcal/mol.

Regarding “SAMITVEIVDPLPDIANLSEEEAKALAEELAEEYAKKKFPNENVKITKVEVELEPETPEIRVTVTLELKSAG [r14_310_JUSTAS]”, the “folding stability dG unfold” value worked out at 2.09 ± 0.16 kcal/mol in data set [1], 2.56 ± 0.083 kcal/mol in data set [2] and 2.37 ± 0.15 kcal/mol in data set [3].

Regarding “SAMIVKDLKTKEEIKKVLEEIAKKLGYPNVTPEEAEEILKKIGVKILSIEKNPKNPEKYIIKIKIEKPKSAG [r14_678_JUSTAS]”, the figures for the “folding stability dG unfold” value in data set [1], in data set [2] and in data set [3] were 2.23 ± 0.1 kcal/mol, 2.34 ± 0.033 kcal/mol and 2.29 ± 0.14 kcal/mol, respectively.

Consider “SAMIVVTLTINPITGKPILIFDPGVGVYAIDPETGEPHEATVDGDTLTLNFGNRPILLTPEAVIPPEELSAG [r14_208_TrMRF]”, for which the “folding stability dG unfold” value in data set [1] is 0.94 ± 0.017 kcal/mol; in data set [2], 1.41 ± 0.079 kcal/mol; in data set [3], 1.21 ± 0.067 kcal/mol.

For “SAMKFKKGAKIEIEVEKVEEKEIDGKTVAVYRMKIKIEVDGKKYEIEVEIYYDKETKEWKIVKVEIKEVSAG [r14_293_TrROS_Hall]”, the figures for the “folding stability dG unfold” value in data set [1], in data set [2] and in data set [3] were 3.55 ± 0.33 kcal/mol, 3.13 ± 0.046 kcal/mol and 3.33 ± 0.19 kcal/mol, respectively.

Consider “SAMKIAKVTYEPVKVDGKELLLFKVEIVHSETGEKEEKTFLTEDPEDFIENLLKHPDIDIVEILEFKEGSAG [r14_464_TrMRF]”, for which the “folding stability dG unfold” value in data set [1] stood at 2.32 ± 0.13 kcal/mol; in data set [2], 3.43 ± 0.066 kcal/mol; in data set [3], 3.21 ± 0.083 kcal/mol.

In the case of “SAMKIIIKLPKNVKPIKAEELEKIPGIKVVKIEIYKGEDGVYYLLIEIEESIPPEKLKELEEKIREIAGSAG [r14_421_TrMRF]”, the entries for the “folding stability dG unfold” value in data set [1], in data set [2] and in data set [3] were 4.44 ± 0.28 kcal/mol, 5.41 ± 0.15 kcal/mol and 5.81 ± 0.41 kcal/mol, respectively.

Turning to “SAMKIKPGEKVKIKIEVKNKKTKKKKTIEIEVPVDEETGEVFTEDELKKLLEKLGIEVEEVKIVEIEKESAG [r14_93_TrROS_Hall]”, the “folding stability dG unfold” value in data set [1] came to 0.886 ± 0.047 kcal/mol; in data set [2], 0.601 ± 0.15 kcal/mol; in data set [3], 0.76 ± 0.21 kcal/mol.

In the case of “SAMKKGEKVKVTLEIEVNGKKYKIELVYDKENNTYTIKIKNEKTGETKTIEVKAKTKEEALEAAKKLLESAG [r14_65_TrROS_Hall]”, the entries for the “folding stability dG unfold” value in data set [1], in data set [2] and in data set [3] were 1.96 ± 0.076 kcal/mol, 2.55 ± 0.035 kcal/mol and 2.41 ± 0.16 kcal/mol, respectively.

In the case of “SAMKLPKDVEIKEIKFDPEKTVTIKIKVKKYDFFIYDPETGKVIVIKPGEEKEITLPANIPLLIFAIKPSAG [r14_385_TrMRF]”, the “folding stability dG unfold” value in data set [1] stood at 2.16 ± 0.092 kcal/mol; in data set [2], 1.91 ± 0.098 kcal/mol; in data set [3], 2.16 ± 0.23 kcal/mol.

Take “SAMKLSPELLKKLGLSKEDIKEIEIEVEPVPELSEEDLKKKNVTVYKVKIKIKVNGKEYEVELLFVEPKSAG [r14_483_TrROS_Hall]”: the “folding stability dG unfold” value in data set [1] was 1.83 ± 0.07 kcal/mol; in data set [2] it was 2.49 ± 0.18 kcal/mol; in data set [3], 2.18 ± 0.15 kcal/mol.

For “SAMKPKEVVIEISVEELRKLAKELFPEKELTLEELKNLVKELLEKLGIKVKKVEIVKVDPEKKRIVIKVSAG [r14_303_TrROS_Hall]”, the “folding stability dG unfold” value in data set [1] came out at 2.77 ± 0.15 kcal/mol; in data set [2], 1.72 ± 0.083 kcal/mol; in data set [3], 2.02 ± 0.21 kcal/mol.

As to “SAMKTIEIEIELDELKNLTPEELEEKAKELAEELAKKLAEEKGLEVVSVKVEVVEKDGKLVVKVTVEVKSAG [r14_310_TrROS_Hall]”, the “folding stability dG unfold” value in data set [1] is 3.59 ± 0.24 kcal/mol; in data set [2], 2.83 ± 0.26 kcal/mol; in data set [3] it was 3.66 ± 0.71 kcal/mol.

As to “SAMKVEKLEELPDKEILKVEATPEELRKIVEELAKANPGYEVSYKILEEEPIALITLTPIPKGPKENLVSAG [r14_600_JUSTAS]”, the results for the “folding stability dG unfold” value in data set [1], in data set [2] and in data set [3] were 1.08 ± 0.06 kcal/mol, 0.0174 ± 0.2 kcal/mol and 0.796 ± 0.13 kcal/mol, respectively.

Regarding “SAMKVKVIVINPDGKPQEFEFEAEEGDPEKLVEEVEAEIKKLHPNSDIKFKAEVLEVKPDGEITILVSDSAG [r14_622_TrMRF]”, the “folding stability dG unfold” value in data set [1] came to 2.03 ± 0.19 kcal/mol; in data set [2], 2.77 ± 0.05 kcal/mol; in data set [3], 2.52 ± 0.14 kcal/mol.

“SAMKVTVKPTTLPDGTTVVVTTEPDKIVAYGTYNGDSFTSESLPDGTVVTTAKKPGGVLVTSPTDPNLESAG [r14_213_JUSTAS]”: the “folding stability dG unfold” value turned out to be 0.26 ± 0.02 kcal/mol in data set [1], 0.112 ± 0.14 kcal/mol in data set [2] and 0.265 ± 0.074 kcal/mol in data set [3].

In the case of “SAMKVYEIPIEIPISKYKPSDIIAALKKALDKLNIPFPEEIIKELTIISIKTGGNISTAIKTLLENGLLSAG [r14_364_TrMRF]”, the “folding stability dG unfold” value in data set [1] came to 1.69 ± 0.12 kcal/mol; in data set [2], 1.29 ± 0.096 kcal/mol; in data set [3], 1.56 ± 0.17 kcal/mol.
